“And” between values parts separate entries of the source, which are not always exact repeats. Equal entries are not always repeated.

Assay [1] concerns the target biotinylated mouse anti dengue IgG (clone 13C11). The assay can be described thus: Dengue IgM capture ELISA: Prep B 1.0 µg/ml premixed with 13C11-Biotin 1.6 µg/ml, sheep anti human IgM strips, dengue antigen with anti dengue-HRP tracer. A general note: An ELISA detects its analyte on a solid surface through an enzyme-linked reagent.
Assay [2] has the same target. The assay can be described thus: Dengue IgM capture ELISA: Prep A […] premixed with 13C11-Biotin 1.6 µg/ml, sheep anti human IgM strips, dengue antigen with anti dengue-HRP tracer.
For assay [3] the target is unchanged. The assay can be described thus: Dengue IgM indirect ELISA: Prep A 1/10 premixed with 13C11-Biotin 1/10,000, dengue 2 antigen plate, HRP sheep anti Human IgM.
Assay [4] shares this target. The assay can be described thus: Dengue IgM indirect ELISA: Prep A 1/100 premixed with 13C11-Biotin 1/10,000, dengue 2 antigen plate, HRP sheep anti Human IgM.
The target is the same in assay [5]. The assay can be described thus: Dengue IgM indirect ELISA: Prep A 1/1000 premixed with 13C11-Biotin 1/10,000, dengue 2 antigen plate, HRP sheep anti Human IgM.

Sequence of Streptavidin-CH3µ Preparation A (chain): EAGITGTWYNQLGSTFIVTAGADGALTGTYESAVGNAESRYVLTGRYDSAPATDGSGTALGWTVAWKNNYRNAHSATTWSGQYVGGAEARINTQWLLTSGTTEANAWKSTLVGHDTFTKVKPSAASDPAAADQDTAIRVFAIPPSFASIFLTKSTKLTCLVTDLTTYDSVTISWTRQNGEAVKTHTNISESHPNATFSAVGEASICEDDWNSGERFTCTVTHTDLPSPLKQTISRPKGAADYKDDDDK
Sequence of Streptavidin-CH3µ Preparation B (chain): as above

Consider Streptavidin-CH3µ Preparation B, for which the A450 in assay [1] is 1.2 absorbance and 1.34 absorbance.
On to Streptavidin-CH3µ Preparation A, for which the A450 in assay [2] was 1.91 absorbance and 1.85 absorbance; in assay [3] it was 1.19 absorbance and 1.11 absorbance; in assay [4], 1.07 absorbance and 1.08 absorbance; in assay [5], 0.212 absorbance and 0.183 absorbance.

The values are drawn from US7026446.
